Results published in US20250230217A1.

Target: mesothelin-Fc fusion protein (human) (UniProt Q13421)
Assay: cell-based or functional assay

UniProt Q13421, sequence (Q13421 other isoform, or with tags, fused parts or gaps limits assumed): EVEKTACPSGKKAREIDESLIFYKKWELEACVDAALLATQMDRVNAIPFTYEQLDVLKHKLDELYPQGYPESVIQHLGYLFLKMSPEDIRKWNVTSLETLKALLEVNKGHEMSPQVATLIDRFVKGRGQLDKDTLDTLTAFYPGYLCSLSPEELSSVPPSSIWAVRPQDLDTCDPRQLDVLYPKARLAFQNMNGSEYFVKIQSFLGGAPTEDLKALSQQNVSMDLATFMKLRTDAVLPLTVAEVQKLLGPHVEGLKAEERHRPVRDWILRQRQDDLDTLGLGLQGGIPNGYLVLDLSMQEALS

| Total Population Doublings (donor 1) (population doublings) | Total Population Doublings (donor 2) (population doublings) | Total Population Doublings (donor 3) (population doublings) | Substance |
| --- | --- | --- | --- |
| 8.8 | 8.4 | 8.4 | mesothelin-specific BBz CAR (SS1 scFv, 4-1BB and CD3z domains) |
| 5.8 | 6.9 | 6 | mesothelin-specific 28z CAR (SS1 scFv, CD28 and CD3z domains) |
